A value given as a limit tells only on which side of the number the result lay.

Assay [1] deals with NCAM 1FN3–2FN3 (wild-type FN3 domain tandem of human neural cell adhesion molecule) (human). Briefly: SPR; Biacore 3000, 25 °C; NCAM 1FN3–2FN3 proteins amine-coupled to a CM4 chip (1800 RU wild type, 1900 RU M610R); analytes FGFR1 D1–D3 or D2–D3 at 1–100 μM; HBS-EP running buffer, analytes in PBS; KD estimated from plateau values at equilibrium, very approximate.
Assay [2] deals with FGFR1 D2-D3 (Homo sapiens) (UniProt P11362). The following applies: cited from earlier work.
The target in assay [3] is NCAM 1FN3–2FN3 M610R mutant (human). Briefly: SEC; size-exclusion chromatography of the purified NCAM 1FN3–2FN3 proteins; data not shown.
For assay [4], the target named is NCAM 1FN3–2FN3 R690E mutant (human). The description is as above.
For assay [5], the target named is NCAM 1FN3–2FN3 Y672E mutant (human). The description is as above.

One may read the Kd as the equilibrium constant for the complex coming apart. Turning to “FGFR1 D2–D3 (soluble ectodomain construct of fibroblast growth factor receptor 1, residues 151–364) (from UniProt P11362 151-364) (domain or fragment)”, in assay [1], the Kd is more than 100 µM.
For the substance NCAM 1FN3-2FN3 (from UniProt P13591), the Kd in assay [2] is 10 µM.
What is called stoichiometry N is a count of units in the complex or per binding partner. In assay [3], “NCAM 1FN3–2FN3 M610R mutant (domain or fragment)” had a stoichiometry N of 2.
“NCAM 1FN3–2FN3 R690E mutant (domain or fragment)” displayed a stoichiometry N in assay [4] of 2.
With “NCAM 1FN3–2FN3 Y672E mutant (domain or fragment)”, in assay [5], the stoichiometry N was 2.

Values taken from publication PMC2267215.
